Like-named read-outs stand apart in the source and are kept apart here.
How the values were obtained:
human PD-L1-Fc [1] = target: T1, human PD-L1-Fc (human, UniProt Q9NZQ7 19-238); experiment: ELISA, coated PD-L1-Fc, anti-FLAG HRP
T1 construct: also called recombinant PD-L1-Fc fusion protein
Method: (§1) The plate was incubated overnight at 4° C. followed by blocking with 80 μL of superblock per well for 1 hour. […] In between each step, the plate was washed 3 times with 1×PBST in a plate washer. The plate was then developed with 20 μL of TMB substrate for 5 min and stopped by adding 20 μL of 2N sulfuric acid. The plate was read at OD450 nm Biotek plate reader and then plotted in Prism 8.1 software.

[2] = target: T2, full-length human PD-L1 on K562 cells (human, UniProt Q9NZQ7 19-290); experiment: FACS, PD-L1/K562 cells
T2 construct: also called PD-L1/K562; cell surface human PD-L1
Method: (§2) Cells were spun down at 1200 rpm for 5 minutes at 4° C. to remove primary antibodies. Cells were then washed once with 200 μL of full medium per well. […] Samples were spun down at 1200 rpm for 5 minutes at 4° C. and washed twice with 200 μL of 1×PBS per well. Samples were reconstituted in 200 μL of 1×PBS and were read on Attune NxT cytometer.

[3] = target: T3, human PD-L1-HIS tagged recombinant protein (human, UniProt Q9NZQ7 19-238); experiment: SPR, IgG on Protein A, PD-L1-HIS analyte
T3 construct: also called hPD-L1-HIS; PD-L1 HIS tagged protein
Method: The assay was run with Biacore T200 control software version 2.0. For each cycle, 1 μg/mL of anti-hPD-L1-IgG was captured for 60 seconds at flow rate of 10 μl/min on flow cell 2 in 1×HBSP buffer on Protein A sensor chip. […] The flow cells were then regenerated with Glycine pH 2 for 60 seconds at flow rate of 30 μl/min. […] The specific binding response unit was derived from subtraction of binding to reference flow cell 1 from antibody captured flow cell 2.

[4] = target: PD-L1 on PD-L1 aAPC/CHOK1 cells (Promega J1250); experiment: cell-based or functional assay
[5] = target: T4, PD-L1 biotinylated (PD-1/PD-L1 TR-FRET assay kit, BPS 72038) (Homo sapiens (Human), UniProt Q9NZQ7 19-238, biotinylated; site not stated); experiment: HTRF competition, competitor PD-1-Eu
T4 construct: Kit reagent
Method: (§3) Briefly, 1× Immuno buffer 1 was made. […] For each well in 384-well plate, serial diluted scFvs and regents were added according to manufacturer's recommended volume. Samples were incubated at room temperature for 1.5 hours then the fluorescent intensity was read with Biotek Neo2 plate reader using manufacture's instrument setting for the assay.

human PD-L1-Fc [6] = target: T1, human PD-L1-Fc; experiment: ELISA, coated PD-L1-Fc, anti-FLAG HRP; remark: listed apart in the source
Method: as §1
(§4) The production, the binding, and all of the characterization assays for selected affinity matured scFv clones were performed as described above.

[7] = target: T4, PD-L1 biotinylated (PD-1/PD-L1 TR-FRET …); experiment: HTRF PD-1/PD-L1 competition (PD-1-Eu and biotinylated PD-L1), % activity; blocked ligand PD-1-Eu
Method: as §3, §4

[8] = target: T2, full-length human PD-L1 on K562 cells; experiment: FACS, PD-L1/K562 cells; remark: listed apart in the source
Method: as §2, §4

[9] = target: PD-L1 on PD-L1 aAPC/CHOK1 cells (Promega J1250); experiment: cell-based or functional assay; remark: listed apart in the source
human PD-L1-Fc [10] = target: T1, human PD-L1-Fc; experiment: SPR, PD-L1-Fc captured, scFv analyte
Method: The assay was run with Biacore T200 control software version 2.0. Anti-human Fc antibody was immobilized on flow cell 1 and 2 of CM5 sensor chip. […] The flow cells were then regenerated with antibody regeneration buffer (GE Healthcare) for 30 seconds at flow rate of 30 μl/min.
as §4

B1: 2018EP170-E06 scFv (scFv, V domains shown)
VH: EVQLVQSGAEVKKPGSSVKVSCKASGGTFSSYAISWVRQAPGQGLEWMGGIIPIFGTANYAQKFQGRVTITADESTSTAYMELSSLRSEDTAVYYCARDSRWGPAPHAFDIWGQGTMVTVSS
VL: QQSVLTQPASVSGSPGQSITISCTGTSSDIGSYNLVSWYQNHPGKAPKLILYEITKRPSGVSSRFSGSKSGNAASLTISGLQAEDEAEYFCCSYAGLSVFFVFGGGTKL
B1 gave an EC50 (human PD-L1-Fc [1]) of 158 nM and an EC50 [2] of 35.9 nM.

B2: 2018EP161-G08 scFv (scFv, V domains shown)
VH: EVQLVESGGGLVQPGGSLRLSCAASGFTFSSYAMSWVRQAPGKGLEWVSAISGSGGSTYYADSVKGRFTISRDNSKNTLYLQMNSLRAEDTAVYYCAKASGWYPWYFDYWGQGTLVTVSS
VL: VIWMTQSPSSLSASLGDRVTITCRASQSVSTYINWYQQKSGKGPKLLIFNASTLQSGVPSRFSGSGSGTDFTLTITSLQPDDSATYYCQQSYRVPLSFGGGTKVEIR
With B2 the EC50 (human PD-L1-Fc [1]) was 1.16 nM.

B3: anti-PD-L1 IgG antibody EP488/EP489 (2018EP171-H02) (antibody, V domains shown)
VH: QVQLVQSGAEVKKPGSSVKVSCKASGGTFSSYAISWVRQAPGQGLEWMGGIIPIFGTANYAQKFQGRVTITADESTSTAYMELSSLRSEDTAVYYCARDKGYGSGWRGDYWGQGTLVTVSS
VL: QSVLTQPPSASGTPGQRVTISCSGSYSNIGSNFVNWYQQLPGTAPKLLIHFNNQRPSGVPDRFSGSRSGTSASLAISGLQSEDEADYFCSTWDDSLKGPIFGGGTKLTVLG
B3 gave a Kd [3] of 9.5 nM.

B4: 2018EP280-E04 scFv (scFv, V domains shown)
VH: QVQLQQWGAGLLKPSETLSLTCAVYGGSFSGYYWSWIRQPPGKGLEWIGEINHIGSTNYNPSLKSRVTISVDTSNNQFSLKLSSVTAADTAVYYCARGRRLRYFDWAAYNWFDPWGQGTLVTVSS
VL: QSALTQDPAVSVALGQTVRISCQGDSLRSHYASWYQQKPGQAPVVVVYDNSDRPSGIPDRFSGSNSGNTATLTISRVEVGDEADYYCQVWDSSSDHYVFGTGTKVTVL
notes: not shown: scFv linker and domain order of the library scFv
B4 was tested, and the “Jurkat NFAT reporter assay EC50” value [4] was 133 nM, the IC50 [5] was 38.5 nM and the EC50 [2] was 5.51 nM.

B5: anti-PD-L1 IgG antibody EP480/EP481 (2018EP164-F04) (antibody, V domains shown)
VH: QVQLQQWGAGLLKPSETLSLTCAVYGGSFSGYYWSWIRQPPGKGLEWIGEINHSGSTNYNPSLKSRVTISVDTSKNQFSLKLSSVTAADTAVYYCARGRRLRYFDWAAYNWFDPWGQGTLVTVSS
VL: QSALTQDPAVSVALGQTVRITCQGDSLRSHYASWYQQKPGQAPVVVVYDNSDRPSGIPDRFSGSNSGNTATLTISRVEVGDEADYYCQVWDSSSDHYVFGTGTKVEIRT
B5 gave a Kd [3] of 5.73 nM.

B6: anti-PD-L1 IgG antibody 2018EP280-E04 (printed construct pair EP486/EP489) (antibody, V domains shown)
VH: QVQLQQWGAGLLKPSETLSLTCAVYGGSFSGYYWSWIRQPPGKGLEWIGEINHIGSTNYNPSLKSRVTISVDTSNNQFSLKLSSVTAADTAVYYCARGRRLRYFDWAAYNWFDPWGQGTLVTVSS
VL: QSALTQDPAVSVALGQTVRISCQGDSLRSHYASWYQQKPGQAPVVVVYDNSDRPSGIPDRFSGSNSGNTATLTISRVEVGDEADYYCQVWDSSSDHYVFGTGTKVTVLG
B6 showed a Kd [3] of 2.76 nM.

B7: 2018EP280-E01 scFv (scFv, V domains shown)
VH: EVQLVESGGGLVKPGGSLRLSCAASGLTFSNAWMSWVRQAPGKGLEWVGRIKSKTDGGTTEYAAPVKGRFTISRDDSKNTLYLQMSSLKTEDTAVYYCTIVYYYDSSGPVFFQHWGQGTLVTVSS
VL: QSVLTQPPSASATPGQRVTISCSGSDSNIATNYVYWYQQFPGTAPKLLIYRNHQRPSGVPDRFSGSRSGTSASLAISGLRSEDEADYYCATWDDSVNSWVFGGGTKLTVL
notes: as for B4
B7 was tested, and the “Jurkat NFAT reporter assay EC50” value [4] was 400 nM, the IC50 [5] was 76.8 nM and the EC50 (human PD-L1-Fc [1]) was 8.1 nM. The EC50 [2] was 10.8 nM.

B8: 2019EP69-F03 scFv (scFv, not shown: small tags and cut ends)
scFv: QVQLVQSGAEVKKPGSSVKVSCKASGGTFSSYAISWVRQAPGQGLEWMGGIIPIFGTANYAQKFQGRVTITADESTSTAYMELSSLRSEDTAVYYCARDKWYGSAWRGDYWGQGTLVTVSSGGGGSGGGGSGGGGSQSVLTQPPSASGTPGQRVTISCSGSYSNIGSNFVNWYQQLPGTAPKLLIHFNNQRPSGVPDRFSGSRSGTSASLAISGLQSEDEADYFCSTWDDSLKGPIFGGGTKLTVL
For B8, the EC50 (human PD-L1-Fc [6]) was 0.696 nM, the “IC50 (read off the curve)” value [7] was roughly 100 nM and the EC50 [8] was 0.115 nM. The “Jurkat NFAT reporter assay EC50” value [9] was 123 nM, the Kd (human PD-L1-Fc [10]) was 0.0797 nM and the koff (human PD-L1-Fc [10]) was 9.87e-05 s⁻¹. It also gave a kon (human PD-L1-Fc [10]) of 1.24e+06 M⁻¹ s⁻¹.

— patent publication US20250340646A1 (ELPIS BIOPHARMACEUTICALS, published 2025)
